Measured values published in patent publication US20210163540, “POLYPEPTIDES SELF-ASSEMBLING INTO NANOPARTICLES” (ETH ZÜRICH, published 2021).

Legend:
OP (Artificial) = target: T1, OP (Artificial) (UniProt Q9XDM8); settings: fluorescence quenching kinetics koff/kon
T1 sequence: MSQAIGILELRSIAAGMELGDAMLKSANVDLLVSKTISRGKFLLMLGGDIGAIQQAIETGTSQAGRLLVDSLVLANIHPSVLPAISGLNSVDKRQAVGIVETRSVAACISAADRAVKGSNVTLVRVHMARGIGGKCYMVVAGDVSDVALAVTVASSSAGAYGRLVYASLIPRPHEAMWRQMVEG

OTR501 (Artificial) = target: T2, OTR501 (Artificial) (UniProt Q9XDM8); settings: fluorescence quenching kinetics koff/kon
T2 sequence: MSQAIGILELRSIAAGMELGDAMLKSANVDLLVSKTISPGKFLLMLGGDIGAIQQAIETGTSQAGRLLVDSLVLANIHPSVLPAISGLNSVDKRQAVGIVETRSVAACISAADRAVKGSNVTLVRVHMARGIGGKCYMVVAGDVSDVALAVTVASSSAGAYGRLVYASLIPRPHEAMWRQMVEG

OTR502 (Artificial) = target: T3, OTR502 (Artificial) (UniProt Q9XDM8); settings: fluorescence quenching kinetics koff/kon
T3 sequence: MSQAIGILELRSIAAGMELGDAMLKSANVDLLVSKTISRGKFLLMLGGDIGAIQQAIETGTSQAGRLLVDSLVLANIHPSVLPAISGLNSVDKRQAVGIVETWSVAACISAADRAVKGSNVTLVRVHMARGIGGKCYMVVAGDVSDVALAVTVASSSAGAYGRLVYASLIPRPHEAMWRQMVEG

OTR503 (Artificial) = target: T4, OTR503 (Artificial) (UniProt Q9XDM8); settings: fluorescence quenching kinetics koff/kon
T4 sequence: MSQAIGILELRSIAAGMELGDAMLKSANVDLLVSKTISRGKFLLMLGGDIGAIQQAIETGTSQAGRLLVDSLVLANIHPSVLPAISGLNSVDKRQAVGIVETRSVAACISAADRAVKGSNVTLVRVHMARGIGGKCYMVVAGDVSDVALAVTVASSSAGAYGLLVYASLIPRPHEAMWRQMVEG

OTR101 = target: T5, OTR101 (Artificial, UniProt Q9XDM8 SEQ:1-184); experiment: EMSA; also no binding by fluorescence quenching; settings: tags: C-terminal His6; chain copies: 24 (inferred); label: Atto488 5'
T5 chain: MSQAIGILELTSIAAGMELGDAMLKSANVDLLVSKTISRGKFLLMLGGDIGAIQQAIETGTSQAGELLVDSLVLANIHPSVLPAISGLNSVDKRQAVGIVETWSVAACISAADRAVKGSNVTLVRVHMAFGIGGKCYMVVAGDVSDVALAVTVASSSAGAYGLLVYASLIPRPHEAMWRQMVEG

OTR203 = target: T6, OTR203 (Artificial, UniProt Q9XDM8 SEQ:1-184); experiment: EMSA; also no binding by fluorescence quenching; settings: tags: C-terminal His6; chain copies: 24 (inferred); label: Atto488 5'
T6 chain: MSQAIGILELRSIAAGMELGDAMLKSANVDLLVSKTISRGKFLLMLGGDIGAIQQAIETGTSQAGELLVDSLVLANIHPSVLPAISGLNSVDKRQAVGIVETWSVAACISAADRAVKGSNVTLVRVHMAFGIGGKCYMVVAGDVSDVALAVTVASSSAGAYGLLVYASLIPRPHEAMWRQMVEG

OTR202 = target: T7, OTR202 (Artificial, UniProt Q9XDM8 SEQ:1-184); experiment: EMSA; also no binding by fluorescence quenching; settings: tags: C-terminal His6; chain copies: 24 (inferred); label: Atto488 5'
T7 chain: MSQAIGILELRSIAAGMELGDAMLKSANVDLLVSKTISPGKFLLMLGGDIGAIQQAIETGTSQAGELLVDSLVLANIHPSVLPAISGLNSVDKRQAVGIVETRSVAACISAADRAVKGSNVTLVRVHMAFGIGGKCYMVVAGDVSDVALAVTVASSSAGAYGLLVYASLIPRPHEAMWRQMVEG

OTR201 = target: T8, OTR201 (Artificial, UniProt Q9XDM8 SEQ:1-184); experiment: EMSA; also no binding by fluorescence quenching; settings: tags: C-terminal His6; chain copies: 24 (inferred); label: Atto488 5'
T8 chain: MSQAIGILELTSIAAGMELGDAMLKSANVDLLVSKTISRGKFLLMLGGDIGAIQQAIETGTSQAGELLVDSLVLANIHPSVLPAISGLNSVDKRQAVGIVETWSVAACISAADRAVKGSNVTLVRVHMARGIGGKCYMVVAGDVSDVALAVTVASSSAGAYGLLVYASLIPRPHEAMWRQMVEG

OTR502 = target: T9, OTR502 (Artificial, UniProt Q9XDM8 SEQ:1-184); experiment: fluorescence quenching kinetics koff/kon, PBS, room temp; settings: tags: C-terminal His6; chain copies: 24 (inferred); label: Atto488 5'
T9 chain: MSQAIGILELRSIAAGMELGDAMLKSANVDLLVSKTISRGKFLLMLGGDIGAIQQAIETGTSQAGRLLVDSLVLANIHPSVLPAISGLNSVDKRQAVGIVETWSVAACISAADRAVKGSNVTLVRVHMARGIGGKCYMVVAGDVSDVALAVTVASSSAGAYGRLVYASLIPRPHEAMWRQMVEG

OTR402 = target: T10, OTR402 (Artificial, UniProt Q9XDM8 SEQ:1-184); experiment: as above; settings: tags: C-terminal His6; chain copies: 24 (inferred); label: Atto488 5'
T10 chain: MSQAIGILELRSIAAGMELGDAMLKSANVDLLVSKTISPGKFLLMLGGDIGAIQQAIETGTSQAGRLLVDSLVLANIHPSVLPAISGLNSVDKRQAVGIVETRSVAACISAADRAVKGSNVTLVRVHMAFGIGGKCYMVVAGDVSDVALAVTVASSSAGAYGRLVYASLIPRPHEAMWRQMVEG

OTR302 = target: T11, OTR302 (Artificial, UniProt Q9XDM8 SEQ:1-184); experiment: as above; settings: tags: C-terminal His tag; chain copies: 24 (inferred); label: Atto488 5'
T11 chain: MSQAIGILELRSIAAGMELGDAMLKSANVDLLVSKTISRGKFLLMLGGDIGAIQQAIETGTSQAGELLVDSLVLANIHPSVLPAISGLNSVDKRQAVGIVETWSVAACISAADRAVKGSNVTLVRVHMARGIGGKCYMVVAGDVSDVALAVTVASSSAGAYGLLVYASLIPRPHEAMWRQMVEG

OTR501 = target: T12, OTR501 (Artificial, UniProt Q9XDM8 SEQ:1-184); experiment: as above; settings: tags: C-terminal His6; chain copies: 24 (inferred); label: Atto488 5'
T12 chain: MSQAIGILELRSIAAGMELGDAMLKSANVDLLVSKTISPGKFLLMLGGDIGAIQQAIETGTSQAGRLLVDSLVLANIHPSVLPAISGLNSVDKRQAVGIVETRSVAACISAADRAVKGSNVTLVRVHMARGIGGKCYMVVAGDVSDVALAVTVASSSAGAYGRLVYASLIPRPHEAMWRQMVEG

OTR301 = target: T13, OTR301 (Artificial, UniProt Q9XDM8 SEQ:1-184); experiment: as above; settings: tags: C-terminal His6; chain copies: 24 (inferred); label: Atto488 5'
T13 chain: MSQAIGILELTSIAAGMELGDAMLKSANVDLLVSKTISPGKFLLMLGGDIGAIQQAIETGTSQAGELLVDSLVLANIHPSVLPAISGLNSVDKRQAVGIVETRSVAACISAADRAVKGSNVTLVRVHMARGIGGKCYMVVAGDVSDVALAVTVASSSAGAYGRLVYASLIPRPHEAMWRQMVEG

OTR401 = target: T14, OTR401 (Artificial, UniProt Q9XDM8 SEQ:1-184); experiment: as above; settings: tags: C-terminal His6; chain copies: 24 (inferred); label: Atto488 5'
T14 chain: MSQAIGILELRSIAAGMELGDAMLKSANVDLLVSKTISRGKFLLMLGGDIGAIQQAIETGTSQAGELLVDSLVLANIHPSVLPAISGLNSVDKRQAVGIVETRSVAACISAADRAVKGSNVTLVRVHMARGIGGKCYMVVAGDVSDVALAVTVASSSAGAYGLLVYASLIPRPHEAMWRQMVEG

OTR503 = target: T15, OTR503 (Artificial, UniProt Q9XDM8 SEQ:1-184); experiment: as above; settings: tags: C-terminal His6; chain copies: 24 (inferred); label: Atto488 5'
T15 chain: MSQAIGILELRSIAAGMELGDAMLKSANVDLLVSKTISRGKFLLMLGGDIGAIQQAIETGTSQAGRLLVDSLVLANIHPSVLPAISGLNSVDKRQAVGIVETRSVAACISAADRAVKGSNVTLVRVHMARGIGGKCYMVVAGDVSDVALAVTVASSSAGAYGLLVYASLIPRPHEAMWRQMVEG

O3-33 [1] = target: T16, O3-33 (Artificial, UniProt Q9XDM8 SEQ:1-184, R11T,R39P,R66E,R103W,R130F,R163L); experiment: EMSA; PBS, room temp; also no binding by fluorescence quenching; settings: tags: C-terminal His6; pET29b(+)-O3-33 (David Baker), PDB 3VCD; chain copies: 24 (self-assembled cage); label: Atto488 5'
T16 sequence: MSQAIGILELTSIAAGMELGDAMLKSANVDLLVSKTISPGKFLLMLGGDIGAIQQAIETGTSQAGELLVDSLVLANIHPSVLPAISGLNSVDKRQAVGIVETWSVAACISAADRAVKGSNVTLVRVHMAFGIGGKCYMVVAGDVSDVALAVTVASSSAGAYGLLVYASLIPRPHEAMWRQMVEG

OP [2] = target: T17, OP (Artificial, UniProt Q9XDM8 SEQ:1-184); experiment: fluorescence quenching kinetics koff/kon, PBS, room temp; p321 gives (2.4±0.3)e-10; settings: tags: C-terminal His6; chain copies: 24 (self-assembled cage); label: Atto488 5'
T17 chain: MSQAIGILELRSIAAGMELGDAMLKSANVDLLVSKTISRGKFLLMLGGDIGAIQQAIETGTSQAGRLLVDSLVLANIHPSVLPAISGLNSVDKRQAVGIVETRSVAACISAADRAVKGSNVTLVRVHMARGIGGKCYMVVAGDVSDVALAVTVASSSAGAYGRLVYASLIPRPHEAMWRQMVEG

O3-33 [3] = target: T16, O3-33; experiment: EMSA; 2 equiv. O3-33; settings: tags: C-terminal His6, pET29b(+)-O3-33 (David Baker), PDB 3VCD, chain copies: 24 (self-assembled cage)
OP [4] = target: T17, OP; experiment: EMSA; PBS, room temp; near complete binding at 0.5 equiv. cage, 1.98 guests per cage by SEC; settings: tags: C-terminal His6; chain copies: 24 (self-assembled cage)
OP-NoHis6 = target: T18, OP-NoHis6 (Artificial, UniProt Q9XDM8 SEQ:1-188); experiment: EMSA; 1:1 molar ratio; siRNA encapsulation also by SEC; settings: tags: no His6 (GS C-terminus); chain copies: 24 (self-assembled cage, inferred); siRNA duplex with 2-nt 3' DNA overhangs
T18 chain: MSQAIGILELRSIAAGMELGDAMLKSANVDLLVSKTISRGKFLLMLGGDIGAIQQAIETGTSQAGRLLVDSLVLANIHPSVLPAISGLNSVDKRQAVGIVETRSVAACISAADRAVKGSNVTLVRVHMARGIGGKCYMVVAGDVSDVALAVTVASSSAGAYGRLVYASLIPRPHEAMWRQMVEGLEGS

OP [5] = target: T17, OP; experiment: EMSA; PBS, room temp; near complete binding at 0.5 equiv. cage, 1.97 guests per cage by SEC; settings: tags: C-terminal His6; chain copies: 24 (self-assembled cage); siRNA duplex with 2-nt 3' DNA overhangs
OP [6] = target: T17, OP; experiment: EMSA; 1:1 complex in PBS; released over 6 h by 26 uM tRNA at 37 C; settings: tags: C-terminal His6; chain copies: 24 (self-assembled cage); label: Atto488 5'
OP [7] = target: T17, OP; experiment: EMSA; 2:1 ssDNA to capsid; settings: tags: C-terminal His6; chain copies: 24 (self-assembled cage)

With hpDNA (Atto488-hairpin DNA) the Kd (OP (Artificial)) was 1.21 nM, the Kd (OTR501 (Artificial)) was 0.39 nM and the Kd (OTR502 (Artificial)) was 0.684 nM. It also gave a Kd (OTR503 (Artificial)) of 0.184 nM.

TTAATTAAAGACTTCAAGCGG (ssDNA) [Atto488-ssDNA (A488-DNA)]: no binding (OTR101); no binding (OTR203); no binding (OTR202). The binding result (OTR201) was “no binding”, the Kd (OTR502) was 0.289 nM and the Kd (OTR402) was 0.248 nM. The Kd (OTR302) was 8.59 nM, the Kd (OTR501) was 0.13 nM and the Kd (OTR301) was 2.12 nM. For the same molecule, the Kd (OTR401) was 16.1 nM, the Kd (OTR503) was 0.609 nM and the binding result (O3-33 [1]) was “no binding”. For the same molecule, the Kd (OP [2]) was 0.242 nM.

B1: dsDNA (GFP-g/GFP-p) (dsDNA)
DNA 1: GAACTTCAGGGTCAGCTTGGG
DNA 2: CAAGCTGACCCTGAAGTTCTT
B1: no binding (O3-33 [3]); binds (OP [4]).

B2: dsRNA (GFP-siRNA-g/GFP-siRNA-p) (dsRNA)
RNA 1: GAACUUCAGGGUCAGCUUGGG
RNA 2: CAAGCUGACCCUGAAGUUCUU
modifications: last two 3' nucleotides deoxy on each strand
B2: no binding (O3-33 [3]; siRNA duplex with 2-nt 3' DNA overhangs); binds (OP-NoHis6); binds (OP [5]).

B3: Atto488-dsDNA (A488-DNA/A488-DNA') (dsDNA)
DNA 1: TTAATTAAAGACTTCAAGCGG
DNA 2: GCTTGAAGTCTTTAATTAATT
B3: binds (OP [6]).

CGTGGCGAGCAGCAGCGC (ssDNA) [ssDNA1]: binds (OP [7]).

CCTGGTGCGTGTGCACATGG (ssDNA) [ssDNA2]: binds (OP [7]).
